One substance from paper PMC10399903 can be followed below.

What all share (experiment): phage adsorption assay; 10^6 pfu of χ phage added to 10 ml LB cultures of motile cells at OD600 2.0, shaken ten minutes at 37°C; cells pelleted at 15,000 x g and phage left in the supernatant titered by plaque assay; adsorption = (1 - pfu supernatant with cells/pfu control without cells) * 100%
Assay [1] deals with ser. Typhimurium FliC with a deletion of D3 (strain FliC3) (Salmonella enterica serotype Typhimurium 14028s) (UniProt P06179).
For assay [2], the target named is ser. Typhimurium FliC with D3 replaced by D3 from ser. Enteritidis FliC (strain FliC6) (Salmonella enterica serotype Typhimurium 14028s | Salmonella enterica serotype Enteritidis P125109) (UniProt P06179).
The target in assay [3] is wild type ser. Typhimurium FliC (strain FliC1) (Salmonella enterica serotype Typhimurium 14028s) (UniProt P06179).
Assay [4] deals with ser. Enteritidis FliC with both D2 domains and D3 replaced by their ser. Typhimurium equivalents (strain FliC11) (Salmonella enterica serotype Enteritidis P125109 | Salmonella enterica serotype Typhimurium 14028s) (UniProt Q06972).

In the case of Bacteriophage χ (Chi), the percentage of phage particles adsorbed after ten minutes in assay [1] was determined as 95%; in assay [2] it was 67%; in assay [3] it was 99%; in assay [4], 48%.
